For this series, the system named is MS2 coat protein. As to the kind of experiment: apparent KD of MS2 coat protein; designed switch direction (-1 OFF switch, 1 ON switch): -1; higher = weaker reporter binding. A digest of the protocol: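 For each design, the apparent KD is the median over clusters of curves fitted to normalised cluster fluorescence. Clusters held RNA switches with common flanks, transcribed on Illumina chips by stalled E. coli RNA polymerase. These were titrated with SNAP-549-labelled MS2 coat protein, doubling from 0.7 or 1.5 nM to 3 µM, without input, with 200 uM small-molecule ligand, or with an oligonucleotide input.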

[1] abbreviates: Eterna round: R95, input ligand: microRNA oligo, concentration not stated.
Setting [2] is: Eterna round: R95, input ligand: FMN 200 uM.
Where [3] appears, read: Eterna round: R95, input ligand: none.
[4] abbreviates: input ligand: microRNA oligo, concentration not stated.

With “CCGGUAAAGGAGGAUAUAGGAGUCGAUAGACACCUAGAAGGCCUGACAUGAGGAUCACCCAUGUGUCCUUCCGG [Fiskers Ex 6 - 94] (puzzle: Exclusion 6)”, under setting [1], the “apparent KD of MS2 coat protein” value was found to be 0.0168 µM.

For “UUAAAUAGUGUGAGGAUAUGCUGGUCCUUGGAUCAGCAGAAGGCACAUGAGGAUCACCCAUGUAGUUAAUUUUA [Mat - Exclusion 4 - JL Mod - D22] (puzzle: Brourd's mod of Exclusion 4)”, the “apparent KD of MS2 coat protein” value under setting [1] was 0.0374 µM.

On to “GAAAAGGUAGGAUAUACGAAAAAAAAGGGUAGAAAAAAAACACAUGAGGAUCACCCAUGUAGAAGGACCAAGAG [salish99_ex2_r3_039] (puzzle: Exclusion 2)”, for which the “apparent KD of MS2 coat protein” value under setting [2] was 0.0617 µM, the “apparent KD of MS2 coat protein” value under setting [1] came out at 0.0243 µM and the “apparent KD of MS2 coat protein” value under setting [3] stood at 0.0319 µM.

In the case of “AAGGAGUGAGGAUAUGCGCGGGCACGCUCUAAAUAAGAAAGACAUGAGGAUCACCCAUGUAGAAGGCACAAUAA [Leedla] (puzzle: Exclusion 2)”, under setting [1], the “apparent KD of MS2 coat protein” value worked out at 0.0178 µM.

As to “AGUCCAUAUGUUAGGAUAUGCAACUAGCCAUUGUAGCAGAAGGAACAUGAGGAUCACCCAUGUACAAAGACCCG [Biinvees] (puzzle: Brourd's mod of Exclusion 4)”, the “apparent KD of MS2 coat protein” value runs as follows: under setting [2], 0.0336 µM; under setting [1], 0.0236 µM; under setting [3], 0.0182 µM.

In the case of “GGUUGGCGAGGAUAUACAUGAGGAUCACCCAUGUGAGAGAAAGAAGUGAGGAAGAAAAGUAGAAGGUGCUGACG [salish99_ex3_r3_055] (puzzle: Exclusion 3)”, the “apparent KD of MS2 coat protein” value is, setting by setting: under setting [2], 0.0566 µM; under setting [1], 0.0632 µM; under setting [3], 0.0827 µM.

On to “UUUAGUUGGUAAGGAUAUCCUACAUUGUUCUGGCCCGGGCAUGCUACAUGAGGAUCACCCAUGUGGGAGAAGGUGCGUCAUUGC [Design 20] (Eterna round: R96, puzzle: Exclusion NG 2)”, for which the “apparent KD of MS2 coat protein” value runs as follows: (input ligand: FMN 200 uM) 0.0425 µM; under setting [4], 0.0425 µM; (input ligand: none) 0.0518 µM.

With “AUUGCGCGAGGAUAUACGAGAGACCUGUGUCAGAACCAUGGACAUGAGGAUCACCCAUGUAGAAGGCGUGCUCU [Eternabot (L1) Solution 73] (Eterna round: R97, puzzle: Exclusion 2)”, the “apparent KD of MS2 coat protein” value was 0.0786 µM (input ligand: FMN 200 uM) and 1.2 µM (input ligand: none).

On to “CAUACUCAAGUGAGGAUAUAGUCUCGGAUACGGAACUAGAAGGCACAUGAGGAUCACCCAUGUAGAGAGUAAAG [EX-4 Malc #28] (puzzle: Brourd's mod of Exclusion 4)”, for which the “apparent KD of MS2 coat protein” value amounted to 0.0566 µM under setting [2], 0.0228 µM under setting [1] and 0.0159 µM under setting [3].

With “AGUAUCUGAGGAUAUUGAGUUAUCUACAUGAGGAUCACCCAUGUUGUAUGUGUAGAAGCACGAGAAGGCAGAUACA [Eternabot (L2) Solution 1] (Eterna round: R97, puzzle: Exclusion 5)”, the “apparent KD of MS2 coat protein” value came out at 0.395 µM (input ligand: FMN 200 uM) and 0.102 µM (input ligand: none).

Take “ACUUAUUGAGGAUAUACAGAAAAUUACAUGAGGAUCACCCAUGUUCUUCAAUGUAUAUAUGUAGAAGGCAGAAUAU [Mat - Exclusion 5 - JL Mod - D19] (Eterna round: R97, puzzle: Exclusion 5)”: the “apparent KD of MS2 coat protein” value (input ligand: FMN 200 uM) amounted to 0.0311 µM and the “apparent KD of MS2 coat protein” value (input ligand: none) was 0.0165 µM.

As to “CCAAGCUGUGUGAGGAUAUGCUGGUCGAAAGAUCAGCAGAAGGCACAUGAGGAUCACCCAUGUGAAAAGCUUGG [Mat - Exclusion 4 - JL Mod - D93] (puzzle: Brourd's mod of Exclusion 4)”, the “apparent KD of MS2 coat protein” value under setting [1] is 0.0163 µM.

As to “AGUAGGUCUACCUUGGUGGAUCUGCAUUUAGGCAGGUGUACAUGAGGAUCACCCAUGUCCUCAUUUGCUCGUCUUAU [JL turnoff v2 99.29] (puzzle: Sensor v3, turn-off variant 2)”, the “apparent KD of MS2 coat protein” value amounted to 0.807 µM under setting [2], 0.488 µM under setting [1] and 0.952 µM under setting [3].

For the sequence “GUUAACGCAGGAUAUUAGUACAUGCACAUGAGGAUCACCCAUGUUUAGUGGGUCUAGGAAUAAGAAGGGCGAUGAA [EX5 #21] (Eterna round: R97, puzzle: Exclusion 5)”, the “apparent KD of MS2 coat protein” value is, setting by setting: (input ligand: FMN 200 uM) 0.21 µM; (input ligand: none) 0.227 µM.

Turning to “GGUCGAGAAGUUAGGAUAUCGAUAAAACAGAAAUUUGAGAAGGGACUUGAGGAUCACCCAAGUUAUUGGUUCUC [Anaranle] (Eterna round: R97, puzzle: Brourd's mod of Exclusion 4)”, the “apparent KD of MS2 coat protein” value runs as follows: (input ligand: FMN 200 uM) 0.0178 µM; (input ligand: none) 0.0196 µM.

“UAAAAUAAACAUGAGGAUCACCCAUGUGAAUGGACUCCUCGGGAGGAUAUUCUGCUUAAAGGUCAGGAGAAGGCCCAUUGCAAU [Isinza] (Eterna round: R96, puzzle: Exclusion NG 3)”: the “apparent KD of MS2 coat protein” value (input ligand: FMN 200 uM) amounted to 0.545 µM, the “apparent KD of MS2 coat protein” value under setting [4] was determined as 0.242 µM and the “apparent KD of MS2 coat protein” value (input ligand: none) worked out at 0.197 µM.

Turning to “CGAUGACGAGUGAGGAUAUCGUGUUCGAAAGAACGUGAGAAGGCACAUGAGGAUCACCCAUGUGAUCCUCAUCG [Omei Ex4B A26] (Eterna round: R97, puzzle: Brourd's mod of Exclusion 4)”, the “apparent KD of MS2 coat protein” value came to 0.708 µM (input ligand: FMN 200 uM) and 0.0571 µM (input ligand: none).

Regarding “GUAUCGUGAGGAUAUCAUGAUUGACUUUUGUUUUGUCAGCGUGAGAAGGCACAUGAGGAUCACCCAUGUGAUUA [Ex4 - 3 - 9] (puzzle: Exclusion 4)”, under setting [1], the “apparent KD of MS2 coat protein” value was found to be 0.0223 µM.

Turning to “ACUGCCACAGGAUAUACGAAACUCUUGGGUUCCGCCGUGUGACAUGAGGAUCACCCAUGUAGAAGGGUGGCUUA [Atbiinza] (puzzle: Exclusion 2)”, under setting [1], the “apparent KD of MS2 coat protein” value worked out at 0.398 µM.

Consider “UUUUAGCAAGGAUAUACAUUUUUUUUAUUAUCCUCAUUAUUACAUGAGGAUCACCCAUGUAGAAGGUGCAUUUU [My Design] (puzzle: Exclusion 2)”, for which the “apparent KD of MS2 coat protein” value under setting [1] is 0.0367 µM.

Turning to “GUCACUAGAGGAUAUACAAUGGUAUAUGAUCCUAGAGACAUACAUGAGGAUCACCCAUGUAGAAGGCUAGUAAU [Exclusion 2 - 6] (puzzle: Exclusion 2)”, under setting [1], the “apparent KD of MS2 coat protein” value turned out to be 0.0687 µM.

For the sequence “CUCAUGUGAGGAUAUCAGUAGUAAAAAAAUAAAAUUACUACUGAGAAGGCACAUGAGGAUCACCCAUGUGUCUU [EX4 331: Super Stable 31] (Eterna round: R96, puzzle: Exclusion 4)”, the “apparent KD of MS2 coat protein” value under setting [4] was determined as 0.0133 µM.

“UUGGAGAUAGGAUAUACGAGGAGAGUUGAGGGAAGGUGAUGACAUGAGGAUCACCCAUGUAGAAGGAUCAGGAG [JR_Exclu2_Sub069] (Eterna round: R96, puzzle: Exclusion 2)”: the “apparent KD of MS2 coat protein” value is, setting by setting: (input ligand: FMN 200 uM) 0.169 µM; under setting [4], 0.0988 µM; (input ligand: none) 0.172 µM.

In the case of “GCACGAAGUGUAGGAUAUCUGUGCGAUUAGCUCAGAGAAGGACACAUGAGGAUCACCCAUGUGUUCCAAUACCCAAAUACGUGC [Eli exng1 - 061] (Eterna round: R96, puzzle: Exclusion NG 1)”, the “apparent KD of MS2 coat protein” value came to 0.011 µM (input ligand: FMN 200 uM), 0.00769 µM under setting [4] and 0.0113 µM (input ligand: none).

With “GAAAACGCAGAGGAUAUUUCAGGUCAAAGCUGCAAAGAAGGCUGCACAUGAGGAUCACCCAUGUGGUCAAUAAA [Mod of Quesina 21 - Jieux - Exclusion 6] (Eterna round: R97, puzzle: Exclusion 6)”, the “apparent KD of MS2 coat protein” value amounted to 0.419 µM (input ligand: FMN 200 uM) and 0.0343 µM (input ligand: none).

These data come from the supplement of paper PMC9170038.
